Data from US20040116333A1 (ABGENOMICS COOPERATIEF U A, published 2004).

T1: recombinant mouse P-selectin/Fc chimera (R&D Systems) (mouse; human, UniProt Q01102 42-709)
T1 construct: range 42-709; The CD33 signal peptide (Met1-Ala16) of the construct is left out; also called mouse P-Selectin fused to the Fc region of human IgG1; P-selectin-Fc fusion protein; not shown: Human IgG1 constant region, Pro100-Lys330
T1 sequence: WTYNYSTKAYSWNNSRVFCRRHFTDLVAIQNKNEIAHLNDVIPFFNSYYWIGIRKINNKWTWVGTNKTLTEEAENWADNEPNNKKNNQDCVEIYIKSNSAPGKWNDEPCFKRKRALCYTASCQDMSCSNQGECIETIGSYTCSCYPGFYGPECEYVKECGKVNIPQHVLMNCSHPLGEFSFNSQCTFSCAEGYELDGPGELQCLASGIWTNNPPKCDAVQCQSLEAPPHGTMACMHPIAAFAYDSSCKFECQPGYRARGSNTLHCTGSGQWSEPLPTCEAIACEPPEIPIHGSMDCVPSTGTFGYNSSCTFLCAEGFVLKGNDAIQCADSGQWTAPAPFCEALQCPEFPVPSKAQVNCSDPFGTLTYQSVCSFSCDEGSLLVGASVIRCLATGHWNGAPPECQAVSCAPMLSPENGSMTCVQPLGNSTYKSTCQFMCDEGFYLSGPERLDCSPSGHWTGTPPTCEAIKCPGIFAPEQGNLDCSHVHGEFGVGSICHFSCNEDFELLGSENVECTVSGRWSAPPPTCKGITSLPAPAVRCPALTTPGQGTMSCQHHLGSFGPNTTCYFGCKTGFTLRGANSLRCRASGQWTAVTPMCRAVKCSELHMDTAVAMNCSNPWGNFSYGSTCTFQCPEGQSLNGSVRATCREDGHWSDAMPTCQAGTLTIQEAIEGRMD


Key:
[1] = molecular target: human P-selectin glycoprotein ligand-1 (PSGL-1) (human) (UniProt Q14242); assay: cell-based or functional assay
[2] = molecular target: T1, recombinant mouse P-selectin/Fc chimera …; assay: flow cytometry on Con A-activated mouse T cells, FITC-anti human IgG Fc detection
Protocol: To determine ability of selectins (P-Selectin, E-Selectin, and L-Selectin) to bind to activated T cells, freshly prepared splenocytes from C57BL/6 mice were activated and harvested at days 2, 4, and 6. Non-activated T cells (i.e., freshly prepared splenocytes at day 0) were also analyzed. The day 2 sample constituted 3×10⁶ cells/ml of splenocytes that were activated with 2 ug/ml of Concanavalin A (Con A) in DMEM+10% FBS for 2 days. Live cells were isolated by Ficoll gradient separation. The day 4 sample was obtained from cells that were activated with Con A for 3 days and maintained in medium containing 5 ng/ml of IL-2 for an additional day. The day 6 sample was derived from cells that were activated with Con A for 3 days and maintained in 5 ng/ml of IL-2 for 3 days.
To assay the samples by FACS analysis, 2×10⁵ cells per well from days 0, 2, 4 and 6 were incubated at 4° C. for 30 minutes with 40 ul/well of mouse P-Selectin, E-Selectin, or L-Selectin fused to the Fc region of human IgG1 (R&D Systems, Minneapolis, Minn.) at concentrations ranging from 20 ug/ml with two-fold serial dilution to 0.156 ug/ml. Following the incubation, cells were washed with 1× FACScan buffer (1×PBS without calcium and magnesium ions from Biochrom AG, Berlin and 2% FBS). […]

Sequence of human P-selectin glycoprotein ligand-1 (PSGL-1) (human) (Q14242 42-412): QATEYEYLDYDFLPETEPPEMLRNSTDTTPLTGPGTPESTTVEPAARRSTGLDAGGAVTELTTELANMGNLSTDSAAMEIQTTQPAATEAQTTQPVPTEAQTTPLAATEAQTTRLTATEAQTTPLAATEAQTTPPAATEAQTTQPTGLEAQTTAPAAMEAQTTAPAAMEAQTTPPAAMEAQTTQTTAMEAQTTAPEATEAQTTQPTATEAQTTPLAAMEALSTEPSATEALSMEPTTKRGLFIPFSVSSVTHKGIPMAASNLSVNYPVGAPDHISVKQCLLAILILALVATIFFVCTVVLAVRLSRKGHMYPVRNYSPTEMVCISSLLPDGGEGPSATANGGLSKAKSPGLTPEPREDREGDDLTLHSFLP

percentage of apoptotic cells (Annexin V / PI, FACS) in PHA-activated human PBMC, day 3, with rabbit anti-mouse Ig cross-linker [1] [%]	percentage of apoptotic cells (Annexin V / PI, FACS) in PHA-activated human PBMC, day 8, with rabbit anti-mouse Ig cross-linker [1] [%]	binding result [2]	Molecule
8.5	24	–	anti-PSGL-1 antibody clone KPL-1 (BD PharMingen)
–	–	binds	mouse P-selectin glycoprotein ligand-1 (PSGL-1), first designated T cell apoptosis inducing protein (TAIP) (receptor, UniProt Q62170 42-397, looked up, whole, on cells; Endogenous protein on mouse T cells; For immunoprecipitation and western blot it was solubilised from RL1 T cell lysates; also called TAIP antigen; CD162) QVVGDDDFEDPDYTYNTDPPELLKNVTNTVAAHPELPTTVVMLERDSTSAGTSERATEKIATTDPTAPGTGGTAVGMLSTDSATQWSLTSVETVQPASTEVETSQPAPMEAETSQPAPMEAETSQPAPMEAETSQPAPMEADTSQPAPMEAETSQPAPNEAETSKPAPTEAETSKPAPTEAETTQLPRIQAVKTLFTTSAATEVPSTEPTTMETASTESNESTIFLGPSVTHLPDSGLKKGLIVTPGNSPAPTLPGSSDLIPVKQCLLIILILASLATIFLVCTVVLAVRLSRKTHMYPVRNYSPTEMICISSLLPEGGDGAPVTANGGLPKVQDLKTEPSGDRDGDDLTLHSFLP
